Assay results taken from PMC10311653 (ACS Central Science, 2023).
Changes are numbered by the printed parent chain.

B1: Q15Kcr-A3 phage (scFv, V domains shown)
VH: EVQLQQSGAELVKPGASVKLSCTASGFNIKDTYIHWVKQRPEQGLEWIGRIDPANGNTKYDPKFQGKATIRADTSSNTAYLQLSSLTSEDTAVYYCAIHYYGSFAYWGQGTLVTVSA
VL: DILMTQSHKFMSTSVGDRVSITCKASQDVGTAVAWYQQKPGQSPKLLIYWASTRHTGVPDRFTGSGSGTDFTLTISNVQSEDLADYFCQQYSSYPYTFGGGTKLEIK
notes: mouse scFv from the Q15Kcr immunization library; source: E. coli XL1-Blue with M13KO7 (ΔpIII) hyperphage, monoclonal phage, PEG 8000/NaCl precipitated
B2: Q15Kcr-B6 phage (scFv, V domains shown)
VH: B1 VH with Q6E, G56V, R71T, Y106H, S116P
VL: B1 VL with L3V, Y96L, G100S
notes: as for B1
B3: Q15Kcr-C1 phage (scFv, V domains shown)
VH: B1 VH with N55D, R71T, A105P
VL: DIQMTQTTSSLSASLGDRVSISCRTSQDISNYLNWYQQKPDGTLKLLIYFTSRLHSGVPSRFSGSGSGTDYSLTISNLEQEDIATYFCQQGKTLPYTFGGGTKLELK
notes: as for B1
B4: Q15Kcr-C7 phage (scFv, V domains shown)
VH: EVQQQQSGTELMKPGASVKISCKATGYTFSSYWIEWVKQRPGHGLEWIGEILPGSGSTNYNEKFKGKATFTADTTSNTAYMQLSSLTSEDSAVYYCASGGYRPSMDYWGQGISVTVSS
VL: GIELTQSQKFTSTSVGDRVSVTCKASQNVGTNVAWYQQKPGQSPKALIYQASYRYSGVPDRFTGSGSGTDFTLTISNVQSEDLAEYFCQQYNSYPLTFGAGTKLELK
notes: as for B1
B5: Q15Kcr-D1 phage (scFv, V domains shown)
VH: B1 VH with Q6E, K30E, G56D, R71T, A72E
VL: DILMTQSRKFMSTSVGDRVSVTCKASQNVGTNVAWYQQKPGQSPEALIYSASYRYSGVPDRFTGSGSGTDFTLTISNVQSEDLADYFCQQYNTYPYTFGGGTKLEMK
notes: as for B1
B6: Q15Kcr-H2 phage (scFv, V domains shown)
VH: B1 VH with G56V, R71T, Y106H
VL: B5 VL with R8Q, E45K, S50Q, D85E, T93S, M106L
notes: as for B1
B7: Q15Kcr-H11 phage (scFv, V domains shown)
VH: EVQLQQSGAELVKTGASVKLSCTASGFSIKDTYIHWVKQRPEQGLEWIGRIDPDPATINTKYDPHFQDKATITADTSSNTTYLQLSSLTSEDTAVYYCAIHYYGSFPYWGQGTLVTVSA
VL: B3 VL with S20T, T25A, L44V, K92N
notes: as for B1
B8: CL-E2 phage (scFv, V domains shown)
VH: B4 VH with Q4L, Q5K, Q6E, T9A, T74I, T75S, Y107F, I112T
VL: DIVMTQSQKFMSTSVGDRVSITCKASQNVRTAVAWYQQKPGQSPKALIYLASNRHTGVPDRFTGSGSGTDFTLTITNVQSEDLADYFCLQHWNYPLTFGAGTKLELK
notes: mouse scFv from the E64AcrK immunization library; also called phage CL-E2; source: E. coli XL1-Blue with M13KO7 (ΔpIII) hyperphage, monoclonal phage, PEG 8000/NaCl precipitated
B9: Q15CK-D4 (antibody, V domains shown)
VH: EVQLVESGGGLVQPGGSRKLSCAASGFTFSTFGMHWVRQAPEKGLEWVAYISSGSYTIYYADTVKGRFTISRDNPKNTLFLQMTSLRSEDTAMYYCARDDYDVNYYAMDYWGQGTSVTVSS
VL: DIVLSQSPAIMSASPGEKVTMTCSASSSVSYMHWYQQKSSTSPKLWIYDTSKLASGVPGRFSGSGSGNSYSLTISSMEAEDVATYYCFQGSGYPYTFGGGTKLEIK
B10: Q15CK-A8 (antibody, V domains shown)
VH: B1 VH with Q3K, Q6E, K30E, R71T, A72E
VL: B5 VL with L3Q, M4I, E45K, D85E, T93S, M106L
B11: Q15CK-B1 (antibody, V domains shown)
VH: EVQLQQSGPQLVRPGASVKISCKASGYSFTSYWMHWVKQRPGQGLEWIGMIDPSDSETRLNQKFKDKATLTVDKSSSTAYMQLSSPTSEDSAVYYCARWDSWGQGTLVTVSA
VL: DIVMTQSPSSLTVTAGEKVTMSCKSSQSLSKSGNQKNYLTWYQQKPGQPPKLLIYWASTRESGVPDRFTGSGSGTDFTLTISSVQAEDLAVYYCQNDYSYPFTFGSGTKLEIK
B12: Q15CK-B10 (antibody, V domains shown)
VH: B1 VH with A9T, I34M, G56D, R71T, A72T, A105P
VL: B1 VL with L3V, H8Q, D28N, W50S, T53N, H55Y, V78M, I106L
B13: Q15CK-D6 (antibody, V domains shown)
VH: B11 VH with S31N, N61D
VL: B11 VL with V3L, M4L, S30L, K31N
B14: Q15CK-H5 (antibody, V domains shown)
VH: B1 VH with K19R, I34M, K38R, F64S, I70L, R71T, Q82H
VL: B4 VL with G1D, E3V, L4M, T11M, Q50S
B15: E64Kcr-A5-mFc (Fc fusion, mouse)
VH: B9 VH with T31S, A97T, N104R, Y105A
VL: DIVMTQPSSSFSVSLGDRVTITCKASEDIYNRLAWYQQKPGNAPRLLISGATTLETGVPSRFSGSGSGKDYTLTITSLQTEDVATYYCQQYWSTPLTFGAGTKLELK
notes: as the scFv of m25; source: HEK 293F, transfected, purified (Protein A, Superdex 200 SEC)
B16: E64Kcr-G9-mFc (Fc fusion, mouse)
VH: B9 VH with T31S, Y56S, N104R, Y105A
VL: DIQMIQSPASLSASVGETVTITCRASQNIYSYLAWYQQKQGKSPQLLVYNAKTLAEGVPSRFSGSGSGTQFSLKINSLQPEDFGSYYCQHHYGTPLTFGAGTKLELK
notes: as the scFv of m27; source: HEK 293F, transfected, purified (Protein A, Superdex 200 SEC)
B17: E64Kcr-A4-mFc (Fc fusion, mouse)
VH: EVKLEESGGGLVQPGGSMKLSCVASGFTFSNYWMNWVRQSPEKGLEWVAEIRLKSNNYATPYAESVKGRFTISRDDSKSSVYLQMNNLRAEDTGIYYCTRGGIFLAYWGQGTLVTVSA
VL: B3 VL with M4L, T7P, S20T, T25A, L44V, F50Y, K92N
notes: as the scFv of m29; source: HEK 293F, transfected, purified (Protein A, Superdex 200 SEC)
B18: E64Kcr-B9-mFc (Fc fusion, mouse)
VH: B1 VH with I34M, R71T, F104L, A105P, Y106V, Q109A, L112T, A117S
VL: B1 VL with D1G, L3V, Y96L, G100A, K103M, I106L
notes: as the scFv of m30; source: HEK 293F, transfected, purified (Protein A, Superdex 200 SEC)
B19: CL-E2-mFc (Fc fusion, mouse)
VH: B4 VH with Q4L, Q5K, Q6E, T9A, T74I, T75S, Y107F, I112T
VL: B8 VL
notes: as the scFv of m23; also called CL-E2-mFc fusion antibody; source: HEK 293F, transfected, purified (Protein A, Superdex 200 SEC)
B20: Q15Kcr-G8-mFc (Fc fusion, mouse)
VH: B1 VH with G26D, N55D, R71T, A105P
VL: B1 VL with L3V, S7A, K24Q
notes: as the scFv of m42; source: HEK 293F, transfected, purified (Protein A, Superdex 200 SEC)

biological target: T1, wildtype (WT) human interleukin-1β (Homo sapiens, UniProt P01584); test: ELISA; phage ELISA; antigen (100 ng) coated on the plate; phages added (pfu titration) in 3% skim milk in DPBST, 2 h at 37 °C; conditions: one partner purified
T1 construct: human interleukin-1β (hIL-1β); pET28a vector; also called WT hIL-1β; hIL-1β; source: E. coli BL21 (DE3), purified (Ni-NTA, Superdex 75 SEC)

**Q.** Does B1 bind?
**A.** binds

**Q.** Does B2 bind?
**A.** binds

**Q.** Does B3 bind?
**A.** binds

**Q.** Does B4 bind?
**A.** binds

**Q.** Does B5 bind?
**A.** binds

**Q.** Does B6 bind?
**A.** binds

**Q.** Does B7 bind?
**A.** binds

**Q.** Does B8 bind?
**A.** binds

biological target: hIL-1βQ15Kcr (Homo sapiens, UniProt P01584, point mutant, Nε-crotonyl-L-lysine (Kcr) at 15); test: not given; conditions: not given

**Q.** Does B9 bind?
**A.** binds

**Q.** Does B10 bind?
**A.** binds

**Q.** Does B11 bind?
**A.** binds

**Q.** Does B12 bind?
**A.** binds

**Q.** Does B13 bind?
**A.** binds

**Q.** Does B14 bind?
**A.** binds

biological target: T1, wildtype (WT) human interleukin-1β; test: not given; conditions: not given

**Q.** Does B9 bind?
**A.** binds

**Q.** Does B10 bind?
**A.** binds

**Q.** Does B11 bind?
**A.** binds

**Q.** Does B12 bind?
**A.** binds

**Q.** Does B13 bind?
**A.** binds

**Q.** Does B14 bind?
**A.** binds

biological target: T1, wildtype (WT) human interleukin-1β; test: ELISA; antigen (100 ng) coated on the plate; scFv-mFc added in 3% skim milk in DPBST, 2 h at 37 °C; EC50; conditions: both partners purified

**Q.** B15 was tested. Which EC50 did it give?
**A.** 0.034 nM

**Q.** Which EC50 does the source give for B16 here?
**A.** 0.197 nM

**Q.** Which EC50 does the source give for B17 here?
**A.** 0.121 nM

**Q.** With B18 as the binder, how does the EC50 read?
**A.** 0.04 nM

biological target: T2, hIL-1β V151A (Homo sapiens, UniProt P01584, point mutant); test: as above; conditions: both partners purified
T2 construct: human interleukin-1β (hIL-1β); source: E. coli BL21 (DE3), purified (Ni-NTA, Superdex 75 SEC)

**Q.** Does B15 bind?
**A.** binds

**Q.** Does B16 bind?
**A.** binds

**Q.** Does B17 bind?
**A.** binds

**Q.** Does B18 bind?
**A.** binds

biological target: T1, wildtype (WT) human interleukin-1β; test: as above; conditions: both partners purified; remark: another data set of the same source

**Q.** Does B19 bind?
**A.** binds

biological target: T3, hIL-1βQ15G (Homo sapiens, UniProt P01584, point mutant); test: not stated; binding affinity of Q15Kcr-G8-mFc for hIL-1β, hIL-1βQ15Kcr and hIL-1βQ15G (Figure S13E); conditions: both partners purified
T3 construct: human interleukin-1β (hIL-1β); source: E. coli BL21 (DE3), purified (Ni-NTA, Superdex 75 SEC)

**Q.** With B20 as the binder, how does the “fold decrease of affinity” value read?
**A.** ~10 fold
